Data: US20220281949A1

Experiments:
DR1-restricted TCR HA1.7 [1] = experiment: flow cytometry: HA1.7-transduced primary CD4+ T cells stained with PE DR1 dimer and anti-CD4
DR1-restricted TCR HA1.7 [2] = experiment: as above; remark: listed apart in the source
DR1-restricted TCR HA1.7 [3] = experiment: flow cytometry: TCR-transduced primary human T cells stained with PE class II dimer and anti-CD4

Substance: DR1^L114W/V143M+2reps dimer specific to Flu-HA306-318 (peptide-MHC)
- percent of cells in the dimer+ CD4+ quadrant (DR1-restricted TCR HA1.7 [1]): 48.9%
- percent of cells in the dimer+ CD4+ quadrant (DR1-restricted TCR HA1.7 [2]): 53%
- percent of cells in the dimer+ CD4+ quadrant (DR1-restricted TCR HA1.7 [3]): 9.1%

Substance: DR1^L114W/V143M dimer with the cognate peptide of TCR HA1.7 (peptide-MHC)
- percent of cells in the dimer+ CD4+ quadrant (DR1-restricted TCR HA1.7 [1]): 1.5%
